Data on 1 sequence can be found in paper PMC8273494.

In the data set the target is hnRNP A1 internal_change (UniProt P09651). Briefly: SPR. The conditions noted are these: hnRNP A1 immobilized; very hard to regenerate; called non-special binding; phosphorothioate at all 30 linkages (stereorandom); SPR: 10 mM PBS (138 mM NaCl, 2.7 mM KCl, 10 mM Na2HPO4, 1.76 mM KH2PO4, 0.05% Tween-20), pH 7.4, 25 C, aptamer 0.39-50 nM; BLI: biotinylated aptamer on SA ….
Chain of hnRNP A1 internal_change (P09651 other isoform, or with tags, fused parts or gaps): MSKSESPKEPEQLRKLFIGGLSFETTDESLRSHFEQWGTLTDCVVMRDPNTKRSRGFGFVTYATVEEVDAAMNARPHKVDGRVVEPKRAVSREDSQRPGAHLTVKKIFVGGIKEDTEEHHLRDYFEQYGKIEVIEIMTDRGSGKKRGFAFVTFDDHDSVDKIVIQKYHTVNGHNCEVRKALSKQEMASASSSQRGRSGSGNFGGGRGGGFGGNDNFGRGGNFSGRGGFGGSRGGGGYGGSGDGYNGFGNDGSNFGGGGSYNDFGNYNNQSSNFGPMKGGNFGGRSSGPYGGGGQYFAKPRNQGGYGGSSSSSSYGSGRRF

On to TGTGGCGAGGTAGGTGGGGTGTGTGTGTATC [WW-20], for which the Kd was found to be 0.014 nM. This counts as picomolar.
